Results as given in US5130300A, “Method for enhancing growth of mammary parenchyma” (Monsanto Company, priority 1987, dated 1992).

Columns and labels:
[1] = system: Quarter-Udders in Pregnant Beef Cows; experiment: Intramammary infusion of BST, quarter-udder weights and DNA (Examples 40-41); type: in vivo, cross-bred beef cows; conditions: for DNA, % Increase, (A-B)/B / DNA, Mean Increase (A-B) / Dry Fat-Free Weight, % Increase, (A-B)/B / Dry Fat-Free Weight, Mean Increase (A-B) / Dry Weight, % Increase, (A-B)/B / Dry Weight, Mean Increase (A-B) / Wet Weight, % Increase, (A-B)/B / Wet Weight, Mean Increase (A-B): B = excipient only
Protocol: 24 pregnant, non-lactating, cross-bred beef cows in their last 40-80 days of gestation were divided into 2 groups and tested for the effects of intramammary infusion using the procedures of Examples 3-6 except that (A) the volume of excipient in each infusion was 5 ml and (B) each treatment infusion contained a 1% zinc salt of an N-methionyl bovine somatotropin (BST) (Group 1-100 mg; Group 2-40 mg) prepared by expression of recombinant DNA and purified essentially as described in Example 1A of U.S. Patent Appln. No. 787,873 filed Oct. 16, 1985 based on European Patent Appln. No. 177,478 published Apr. 9, 1986, both incorporated here by reference. Results are in Tables 19-20.

[2] = system: Quarter-Udders in Pregnant Holstein Heifers; experiment: Intramammary infusion, milk production per udder side in first 30 days after parturition (Examples 23-24, 42-43); type: in vivo
Protocol: 18 pregnant Holstein heifers within their last 40-60 days of expected calving were housed in a free-stall facility, fed a ration of alfalfa hay and pelleted concentrate and administered 10 ml of an excipient (sterile sesame oil) into each quarter-udder by intramammary infusion through the steak canal every third day for the number of treatments shown below. The heifers in Groups 1 and 3 were treated no later than their fifth day before parturition; treatments of those in Groups 2 and 4 were continued into their last five days. Treatments containing a mitogenic substance were administered to both quarter-udders on one side of each animal. Excipient only was administered to both quarter-udders on the opposite side of that animal. All infusions were carried out with a Jorgensen laboratories infusion canula of the kind used in Examples 1-2. Each teat was sprayed with 70% ethanol and wiped dry prior to treatment, and dipped with an iodine solution following treatment. These animals were milked normally each a.m. and p.m. for the first 30 days after parturition, with milk production recorded separately for each quarter-udder. […] Shown in Table 21 are the milk production results obtained with the heifers of Group 3 in Examples 23-24. On average, milk production by the half-udders that had been treated in Group 4 of Examples 23-24 slightly exceeded (2%, p<0.4) that of their control half-udders.

[3] = system: Quarter-Udders in Pregnant Beef Cattle; experiment: Intramammary infusion of ovine prolactin, quarter-udder weights and DNA (Comparative Examples); type: in vivo, cross-bred beef cows
Protocol: 16 pregnant, non-lactating, cross-bred beef cows in their last 30-105 days of gestation were divided into 2 groups and tested for the effects of intramammary infusion using the procedures of Examples 25-28 except that instead of a prostaglandin, each treatment infusion contained either 2 mg (Group 1) or 10 mg (Group 2) of ovine prolactin obtained from Sigma Chemical Co., St. Louis, Mo. (Lot No. 26F-0076) in 10 ml of an emulsion of 0.9% saline containing 0.5% Tween-20 in sterile sesame oil containing 5% Arlacel A (3:2 oil: saline). Results are in Tables 22-23.

[4] = Group 1: total of 500 milligrams BST
[5] = Group 1: total of 500 milligrams BST (100 mg per infusion)
[6] = Group 2: total of 200 milligrams BST
[7] = Group 2: total of 200 milligrams BST (40 mg per infusion)
[8] = Group 1: total of 10 milligrams (2 mg per infusion)
[9] = Group 1: total of 10 milligrams, B = control mean
[10] = Group 2: total dose of 50 milligrams (10 mg per infusion)
[11] = Group 2: total dose of 50 milligrams, B = control mean

B1: BST: N-methionyl bovine somatotropin prepared by expression of recombinant DNA (protein, UniProt P01246 27-217, looked up)
Somatotropin: AFPAMSLSGLFANAVLRAQHLHQLAADTFKEFERTYIPEGQRYSIQNTQVAFCFSETIPAPTGKNEAQQKSDLELLRISLLLIQSWLGPLQFLSRVFTNSLVFGTSDRVYEKLKDLEEGILALMRELEDGTPRAGQILKQTYDKFDTNMRSDDALLKNYGLLSCFRKDLHKTETYLRVMKCRRFGEASCAF
modifications: N-terminal Met
notes: N-methionyl bovine somatotropin prepared by expression of recombinant DNA
- DNA, Avg. % Increase/Animal [1, 4]: 10.5%
- Dry Fat-Free Weight, Avg. % Increase/Animal [1, 4]: 7.9%
- Dry Weight, Avg. % Increase/Animal [1, 4]: 10.7%
- Wet Weight, Avg. % Increase/Animal [1, 4]: 9.8%
- DNA, Treatment Mean [1, 5]: 2185 mg
- Dry Fat-Free Weight, Treatment Mean [1, 5]: 146.7 g
- Dry Weight, Treatment Mean [1, 5]: 207.6 g
- Wet Weight, Treatment Mean [1, 5]: 790.1 g
- DNA, % Increase, (A-B)/B [1, 4]: 6.4%
- DNA, Mean Increase (A-B) [1, 4]: 131 mg
- Dry Fat-Free Weight, % Increase, (A-B)/B [1, 4]: 3.6%
- Dry Fat-Free Weight, Mean Increase (A-B) [1, 4]: 5.2 g
- Dry Weight, % Increase, (A-B)/B [1, 4]: 8.9%
- Dry Weight, Mean Increase (A-B) [1, 4]: 17.0 g
- Wet Weight, % Increase, (A-B)/B [1, 4]: 7.3%
- Wet Weight, Mean Increase (A-B) [1, 4]: 53.5 g
- DNA, Avg. % Increase/Animal [1, 6]: 15.8%
- Dry Fat-Free Weight, Avg. % Increase/Animal [1, 6]: 7.8%
- Dry Weight, Avg. % Increase/Animal [1, 6]: 10.7%
- Wet Weight, Avg. % Increase/Animal [1, 6]: 13.4%
- DNA, Treatment Mean [1, 7]: 1371 mg
- Dry Fat-Free Weight, Treatment Mean [1, 7]: 49.5 g
- Dry Weight, Treatment Mean [1, 7]: 96.4 g
- Wet Weight, Treatment Mean [1, 7]: 396.9 g
- DNA, % Increase, (A-B)/B [1, 6]: 5.5%
- DNA, Mean Increase (A-B) [1, 6]: 72 mg
- Dry Fat-Free Weight, % Increase, (A-B)/B [1, 6]: 10.5%
- Dry Fat-Free Weight, Mean Increase (A-B) [1, 6]: 4.7 g
- Dry Weight, % Increase, (A-B)/B [1, 6]: 13.3%
- Dry Weight, Mean Increase (A-B) [1, 6]: 11.3 g
- Wet Weight, % Increase, (A-B)/B [1, 6]: 14.9%
- Wet Weight, Mean Increase (A-B) [1, 6]: 51.5 g
- Average Milk Production, Treated Side (A) ([2]; BST 50 mg per infusion every third day, no later than fifth day before parturition (Group 3 per text), first 30 days after parturition): 10.9 kg/day
- Average Milk Production, % Increase, (A-B)/B ([2]; BST 50 mg per infusion, no later than fifth day before parturition (Group 3 per text), B = control side, excipient only): 11%
- Milk production of treated half-udders in excess of control half-udders ([2]; Group 4: BST 50 mg per infusion, treatments continued into last five days before parturition): 2%

B2: Ovine Prolactin: ovine prolactin from Sigma Chemical Co. (Lot No. 26F-0076), comparative example (protein, UniProt P01240 31-229, looked up)
Prolactin: TPVCPNGPGNCQVSLRDLFDRAVMVSHYIHNLSSEMFNEFDKRYAQGKGFITMALNSCHTSSLPTPEDKEQAQQTHHEVLMSLILGLLRSWNDPLYHLVTEVRGMKGVPDAILSRAIEIEEENKRLLEGMEMIFGQVIPGAKETEPYPVWSGLPSLQTKDEDARHSAFYNLLHCLRRDSSKIDTYLKLLNCRIIYNNNC
- DNA, Treatment Mean [3, 8]: 2526 mg
- Dry Fat-Free Weight, Treatment Mean [3, 8]: 137.8 g
- Dry Weight, Treatment Mean [3, 8]: 262.7 g
- Wet Weight, Treatment Mean [3, 8]: 895.3 g
- Dry Fat-Free Weight, % Increase, (A-B)/B [3, 9]: .88%
- Dry Fat-Free Weight, Mean Increase (A-B) [3, 9]: 1.2 g
- Dry Weight, % Increase, (A-B)/B [3, 9]: 1.0%
- Dry Weight, Mean Increase (A-B) [3, 9]: 4.8 g
- Wet Weight, % Increase, (A-B)/B [3, 9]: .6%
- Wet Weight, Mean Increase (A-B) [3, 9]: 5.4 g
- DNA, Treatment Mean [3, 10]: 3672 mg
- Dry Fat-Free Weight, Treatment Mean [3, 10]: 189.2 g
- Dry Weight, Treatment Mean [3, 10]: 343.4 g
- Wet Weight, Treatment Mean [3, 10]: 1487.1 g
- DNA, % Increase, (A-B)/B [3, 11]: 10.5%
- DNA, Mean Increase (A-B) [3, 11]: 350 mg
- Dry Fat-Free Weight, % Increase, (A-B)/B [3, 11]: 2.5%
- Dry Fat-Free Weight, Mean Increase (A-B) [3, 11]: 4.7 g
- Wet Weight, % Increase, (A-B)/B [3, 11]: 13.6%
- Wet Weight, Mean Increase (A-B) [3, 11]: 178.6 g
